For this assay, the target named is human OSM (recombinant, mammalian-cell derived, OSMN1-1) (human) (UniProt P13725). Briefly: cell-based or functional assay.
Sequence of human OSM (recombinant, mammalian-cell derived, OSMN1-1) (human) (P13725 26-221 limits assumed): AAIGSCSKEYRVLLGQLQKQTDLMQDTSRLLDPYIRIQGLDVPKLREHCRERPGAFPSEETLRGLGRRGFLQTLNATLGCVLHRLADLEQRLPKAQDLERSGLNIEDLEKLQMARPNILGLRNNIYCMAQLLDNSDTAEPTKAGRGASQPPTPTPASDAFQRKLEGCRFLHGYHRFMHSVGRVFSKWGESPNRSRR

For the substance MAB295 (R&D Systems) (antibody), the pSTAT3 inhibition EC50 (A375 cells, 5 ng/ml hOSM) worked out at 72.1 ng/ml.

For the origin of these results see US20190092856A1.
